The record followed here is US20220362348A1, “LACTOFERRIN, DERIVED PEPTIDE THEREOF AND METHOD THEREOF FOR INHIBITING AND/OR ALLEVIATING LIPID SYNTHESIS” (RENORIGIN INNOVATION INSTITUTE CO., LTD., priority 2021, published 2022).

The assay relates to Human sebocytes. Description: Neutral fat detection (Nile red staining, fluorescence intensity) in linoleic acid-induced sebocytes. Format: cell-based. As to conditions: for fluorescence intensity (lipid content, Nile red): FIG. 1 D, two days, negative control about 1.0. Here is the method: Human sebocytes (Cat. No. 36079-01, Celprogen, Torrance, Calif., USA) were cultured in Dulbecco's Modified Eagle Medium (DMEM): Nutrient Mixture F-12 (DMEM/F12) purchased from Thermo Fisher Scientific Limited (Barrington, Ill., USA), 10% fetal bovine serum (FBS) purchased from Gibco, Grand Island, N.Y., USA and penicillin/streptomycin (100 IU/50 […]), incubated at 37° C. in the 5% CO2 atmosphere.
Human sebocytes were implanted in 24- or 96-well plates. After 24 hours of culture, the cells were divided into a negative control group, a positive control group and an experimental group. […] The treated human sebocytes were cultured for two days. Human sebocytes were fixed with 4% formaldehyde at room temperature. After 60 minutes of fixation, the cells were washed with PBS and stained with Nile Red solution (1 μg/ml in PBS) at 37° C. for 15 minutes. Next, the cells were washed and observed under a fluorescent microscope. Fluorescence intensity is measured with fluorometer Spectra Max i3.

B1: lactoferrin (protein)
chain: APRKNVRWCTISQPEWFKCRRWQWRMKKLGAPSITCVRRAFALECIRAIAEKKADAVTLDGGMVFEAGRDPYKLRPVAAEIYGTKESPQTHYYAVAVVKKGSNFQLDQLQGRKSCHTGLGRSAGWIIPMGILRPYLSWTESLEPLQGAVAKFFSASCVPCIDRQAYPNLCQLCKGEGENQCACSSREPYFGYSGAFKCLQDGAGDVAFVKETTVFENLPEKADRDQYELLCLNNSRAPVDAFKECHLAQVPSHAVVARSVDGKEDLIWKLLSKAQEKFGKNKSRSFQLFGSPPGQRDLLFKDSALGFLRIPSKVDSALYLGSRYLTTLKNLRETAEEVKARYTRVVWCAVGPEEQKKCQQWSQQSGQNVTCATASTTDDCIVLVLKGEADALNLDGGYIYTAGKCGLVPVLAENRKSSKHSSLDCVLRPTEGYLAVAVVKKANEGLTWNSLKDKKSCHTAVDRTAGWNIPMGLIVNQTGSCAFDEFFSQSCAPGADPKSRLCALCAGDDQGLDKCVPNSKEKYYGYTGAFRCLAEDVGDVAFVKNDTVWENTNGESTADWAKNLNREDFRLLCLDGTRKPVTEAQSCHLAVAPNHAVVSRSDRAAHVKQVLLHQQALFGKNGKNCPDKFCLFKSETKNLLFNDNTECLAKLGGRPTYEEYLGTEYVTAIANLKKCSTSPLLEACAFLTR
modifications: bovine lactoferrin
In the case of B1, the “lipid content reduced compared with positive control group (LA)” value (FIG. 1, 0.1 mM LA + 100 to 400 μg/mL lactoferrin) is given as 25%. The “fluorescence intensity (lipid content, Nile red)” value runs as follows: (0.1 mM LA + 100 μg/mL lactoferrin) “about 1.5”; (0.1 mM LA + 200 μg/mL lactoferrin) “about 1.5”; (0.1 mM LA + 400 μg/mL lactoferrin) “about 1.5”. Also, the “concentration dependence of inhibition of LA-induced lipid content” value (FIGS. 1-4, lactoferrin 100-400 μg/mL, peptides 25-100 μg/mL) was “dose-dependent manner”.
